Test: yeast display, Sf9 membrane polyspecificity reagent, FACS + sequencing; frameworks hold sequencing errors
Method in brief: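 A nanobody's polyreactivity label depends on the gate it was sorted from. Yeast display cells were stained with 10% biotinylated, detergent-solubilized Sf9 membrane reagent for 1 hour at 4 °C, enriched on streptavidin microbeads and sorted by FACS. The low and high (top ~1%) gates were set on anti-HA fluorescence for expression and streptavidin fluorescence for reagent binding.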

| Sequence | polyreactivity (PSR sort gate) |
| --- | --- |
| QVQLVESGGGLVQAGGSLRLSCAASGRTFQYYAMGWYRQAPGKERELGAAISGIGTSTSYADSVKGRFTISRDNAKNTVYLQMNSLKPEDTAVYYCAARLLVPGSPWYTNYYWGQGTQVTVSS | low polyreactivity |
| QVQLVESGGGLVQAGGSLGLSCAASGFTFYFYAMGWYRQAPGKERELVAANSRGTSTYYADSVKGRFTISRDNAKKTVYLQMNRLKPEDTAVYYCAARGLWPYDDWGQGTQVTVSS | low polyreactivity |
| QFQLVESGGGLVQAGGSLRLSCAASGSIFIPYAMGWYRQAPGKEREFVATITFGAASTYYADSVKGRFTISRDNAKNTVYLQMNSLKREDTAVYYCAAEWRRYEYADSWEYDYWGQGTQVTVSS | low polyreactivity |
| QVQLVESGVGLVQAGGSLRLSCAASGSTFRYNAMVWYRQAPGKERELVAAITGSGDRTFYADSVKGRFTISRDNAKNTVYLQMNSLKPVDTAVYYCAARSRYPFSYGYYYWGQGTQVSVSS | high polyreactivity |
| QVQLVESGGGIVQAGGSLRLSCAASGRIIYNYGLGWYRQAPGKERELVARITTGGRTNYADSVKGRFTISRDNAKNTVYVQMNSLKPEDTAVYFCNAVGYHSRWYYYNYDYWGQGTQVTVSS | low polyreactivity |
| QVQLVESGGGLVQAGGSLRLSCAASGGIFYRNAMGWYRQAPGKERELVAAISSGGGSTYYADSVKGRFTISRDNAKNTVYLQMNSLKPEDTAVYYCARDSYHLYIQPFGYWGQGTQVTVSS | low polyreactivity |
| QVQLQESGGGLVQAGGSLRPSCAASGSISDGVPKGWYRQAPGEERELVATTVLGATTNYADSVKGRFTISRGNAKNTVYLQMNSLKPEETAVYYCAAPLRYDKGFSYWGQGTQVTVSS | low polyreactivity |
| QVQLVESGGGLVQAGGSLRLSCAASGFIFSIYAMGWYRQAPGKERELVAAISKSGGRTYYADSVKGRFTISRDNAKNTVYLQMNSLKPEDTAVYYCAVDSYYKYDYWGQGTQVTVSS | high polyreactivity |
| QVQLVESGGGLVQAGGSLRLSSAASGSTFKFYAMGWYRQAPGKERELVAAIRYSGGSTYYADSVKGRFTISRDNAKNTVYLQMNSLKPEDTAVYFCATEAQCVTYWFGYWGQGTQVTVSS | low polyreactivity |
| QVQLVESGGGLVQAGGSLRLSCAASGFIFPTYAMGWYRQAPGKERELVAAITWSGSDTYYADSVKGRFTISRDNAKNTVYLQMNRLKPEDTAVYYCAAEVSKYGWRYYYWGQGTQVTVSS | low polyreactivity |
| QVQLVESGGGLVQARGSLRLSCAASGLTFRRNTMGWYRQAPGKERELVATITSGGSTNYADSVKGRFTISRDNAKNTVYLQMISLKPEDTAVYYCAARTTYITNWVYRHTYTYYYWGQGTQVTVSS | high polyreactivity |
| QVQLVESGGGLVQAGGSLRLSCAASGRNFYRNAMGWSRQAPGKERELVAAITGSGGITYYADSVKGRFTISRDNAKYTVYLQMNRLKPEDTGVYYCNARYYSHRYDYWGQGTQVTVSS | high polyreactivity |
| QVQLVESGGGLVQAGGSLRLSCAASGYIFHRYAMGWYRQAPGKERELVAAITWTGARTYYADSVKGRFTISRDNAKNTVYLQMNSLKPEDTAVYYAAPASYSFAKSGYWGQGTQVTVSS | high polyreactivity |
| QVQLVESGGGLVQAGGSLRLSCAASGSIFYGYARGWYRQAPGKERELVASITSSGGSTYYADSVKGRFTISRDNAKNTDYLQMNSLKPEDSAVYYCAVIGYHYSAISPPSQTRQGYDYWGQVTQVTVSS | low polyreactivity |
| QVQLVESGGGLVQAGGSLRLSCAASGRTFYPYAMGWYRQAPGKERELVATITWSGTTTYYADSVKGRFTISRDNAKNIVYLQMNSLKPEDTAVYYCAADVWEVVTPYGTIDDDYWGQGTQVTVSS | high polyreactivity |
| QVQLVESGGGLVQAGGSLRLSCAASGRTFWRNAMGWYRQAPGKERELVAAINSGGRTYYADSVKGRFTISRDNAKNTVYLQMNSLKPEDTAVYYCAAVYSQSTKRYELYYWGQGTQVTVSS | high polyreactivity |
| QVQLVESGGGLVQAGGSLRLSCAASGSIFAINTMGWYRQAPGKERELVAAITSGGSTYYSDSVKGRFTISRDNAKNTVYLQMNSLKPEDTAVYYCAATPIGQHFTVDYWGQGTQVTVSS | low polyreactivity |
| QVHLVESGGGLVQAGGSLRLSCAASGITDWIYAMGWYRQAPGKERELVAAITGRGGSTYYADSVKGRFTISRDKAKNTVYLQMNSLKPEVTAVDYCAAESWYSTYDYWGQGTQVTVSS | high polyreactivity |
| QVQLVESGGGLVQAGGSLRLSCAASGFTFNRYAMGWYRQAPGKERELVAAISRSTATTYYADSVKGRFTISRDNAKNTVYLQMNSLKPEDTAVYYCNAPQRYWPPYGYWGQGTQVTVSS | high polyreactivity |
| QVQLVESGGGIDQAGGSLRLRCAASGFIFRYYAMGWYRLAPGKESELVAVISASGGSTYYADSVKGRFTISRDNAKKTVYLQMNSRKPEDTAVYYCNTKRYFFHRGDMDYWGQGTQVTVSS | high polyreactivity |
| QVQLVESGGGLVQAGGSLRLSCAASGSTSPRNAMGWYRQAPGKERELVAAISSGGRTNYADSVKARFTISRDNAKNTDYLQMNSLKREDTAVYYCAAEVQSTYWGQGTQVTVSS | low polyreactivity |
| QVQLVESGGGLVQAGGSLRLSCAASGSTLGYYTMGWYRQAPGKERELVAAISGSGVTTSYADSVKGRFTISRDNAKNTVYLQMNSLKPEDTAVYYCARRYRVGTTGGDYWGQGTQVTVSS | high polyreactivity |

| Sequence | polyreactivity (PSR sort gate) |
| --- | --- |
| QVQLVESGGGLVQAGGSLRLSCAASGFTFAVYAMGWYRQAPGKERELVAAITTSGTRTYYADSVKGRFTISRDNAKNTVYLQMNSLKPEDTAVYYCAAVGFRQWPEFDYWGQGTQVTVSS | low polyreactivity |
| QVQLVESGGGLVQAGGSLRLSCAASGYIFRKYAMGWYRQAPGKERELVADISSSGGSTYYADSVKGRFTISRDNAKNTVYLQMNSLKPEDTAVYYCAKDRKSSRRITRMDYWGQGTQVTVSS | high polyreactivity |
| QVQLVESGGGLVQAGGSLRLSCAASGFIFSRNAMGWYRQAPGKERELVAAISSGGGTDYADSVKGRFTISRDNAKNTVYLQMNSLQPEDTAVYYCAASYFPGWKHSLDDYWGQGTQVTVSS | low polyreactivity |
| QVQHVESGGGLVQAGGSLRLSCAASGSTFQMYAMGWYRQAPGKEMELVASISWSGGSTYYAVSVMGRFTISRDNAKNTFYLQMNSLKPEDTAVYYCKADFWWRYRPGAVFRSYGYWGQGTQVTVSS | low polyreactivity |
| QVQLVESGGVLVQAGGSLRLSCAATGSIFQYYAMGWSRQAPGKERELVATNRRSGGSTYYADSVKGRFTISRDTAKHTVFLQMNSLKPEDTAVYYCARRLYTWETGGWRYDSWGQGTQVTVSS | high polyreactivity |
| QVQLVESGGGLVQAGGSLRLSCAASGITFGRDAMGWYRQARGKERELVAAISRGSGSTYSADSVKGRFTISRDNAKNTVYLQMHSLKPEDTAVYYCGKVVRVGMGYWGQGTQVTVSS | high polyreactivity |
| QVQLVESGGGLVQAGGSLRLSCAASGSTFVYYAMGWYRQAPGKEREFVAAISTNGGSTYYADSVKGRYTISRDNAKNTVYLQMNSLKPEDTAVYYCAARWYWGQGTQGTVSS | high polyreactivity |
| QVQLVESGGGLVQAGGSLRLISAASGGISSLNAMGWYSQAPGKERELVAAIDWIGGSTYYADSVKGRFTISRDTAKNTVYLQKNSLKPEDTAVYYCGKRGVYGDRYYYWGQGTQVTVSS | high polyreactivity |
| QVQLVESGGGLVQAGGSLRLSCAASGFTFRFYVMGWYRQAPGKERELVAAISKRGASTSYADSVKGRFTISRDNAKNTVYLQMNSLKPEDTAVYYCAASAKRGEMGYWGQGTQVTVSS | high polyreactivity |
| QVQLVESGGGLVQAGGSLRLSCAASGRIFTHNTMGWYRQAPGKERELVATIDSGGSTNYADSVNGRFTISRDNAKNTVNLQMNSLQPEDTAVYYCAARVRPWRYLMGYWGQGTQVTVSS | low polyreactivity |
| QVQLVESGGGLVQAGGSLRLSCAASGRTFTQNAMGWYRQATGKERELVASISSSGSTYADSVKGRFTISRDNAKNTVYLQMISLKPEDTAVNYCNAVGFQANDYNYWGQGTQVTVSS | low polyreactivity |
| QVQLVESGGGLVQAGGSLRLSCAASGRIFSWYTMGWYRQAPGKERELVAGITWSGGSTYYADSVKGRFTISRDNAKNTVYLQMNSLKPEDTAVYYCAAGGVSFGYYKYYYWGQGTQVTVSS | high polyreactivity |
| QDQLVESGGGLVQAGGSLRLSCAASGLTFSLYAMGWYRQAPGKERELVAAISWTGGSTYYADSVKGRFTISRDTPKNTVYLQMNSLKPEDTAVYYCNARYTLFARYGYDYWGQGTQVTVSS | low polyreactivity |
| QVQLVESGGGLVQAGGSLRLSCAASGGTFEVNAMGWYRQAPGKERELVAAIDTSDGSTYYADSVKGRFTISRDNAKNTVYLQMNSLKPEDTAVYYCAAERLFRFWYSAYERYDYWGQGTQVTVSS | low polyreactivity |
| QVQLVESVGGLVQAGGSLRLSCAASGSIFGSYAMGWYRQAPGKERELVAAITYSGTSTYYADSVKGRFTISRDNAKNTVYLQMNSLKPEDTAVYYCYAVSRHRSKFDYWGQGTQVTVSS | high polyreactivity |
| QVQLVESGGGLVQAGGSLRLSCAASGRIFYNYAMGWYRQAPGKERELVAAISGSGGSTYYADSVKGRFTISRDNAKNTVYLQMNSLKPEDTEVYYCSTSGPQYYSRNFDYWGQGTQVTVSS | low polyreactivity |
| QVQLVESGGGLVQAGGSLRLSCAASGSTFKIYAMGWYRPAPGKERELVAAITRGASTYADSVKGRFTISRDNAKNTVYLQMNSLKPEDTAVYYCAAYRRPSRSGDKPIGFDYWGQGTQVTVSS | high polyreactivity |
| QVQLEESGGGLVQAGGSLRLSCAASGRTFDYYAMGWYRQAPGKERELVAAIRLISGNTYYADSVKGRFTISRDNAKNTVYLQMNSLKPEDTAVYYCAAPSDGVPSLYGGMDYWGQGTQVTVSS | low polyreactivity |
| QVQLVESGGGLVQAGGSLRLSCAASGFTFYSYAMGWYRQAPGKERELVAAISGGGGSTYYADSVKGRFTISRDNAKNTVYLQMNSLKPEDTAVYYCAKRPAYRGYGLGYYWGQGTQVTVSS | high polyreactivity |
| QVQLVESGGGLVQAGGSLRLSCAASGGTFKPNVMGWYRQAPGKERELVAAITSGGSTYYADSVKGRFTMSRDNAKNTVYLQMNSLKPEDTAVYYCAATSLRRYGYNYWGQGTQVTVSS | high polyreactivity |
| QVQLVESGGGLVQAGGSLRLSCAASGSTFYYNAMGCYRQAPGKERELVAAISSDGSTNYADSVKGRFTISRDNAKNTVYLQMNSLKPEDTAVYYCAAENIVYVRSNWYWGYDYWGQGTQVTVSS | low polyreactivity |
